One experiment concerns the target T1, LZTR1 R810W-FLAG (human, UniProt Q8N653 1-840).
T1 construct: Stably expressed in U87 cells by lentivirus; also called LZTR1-FLAG-R810W; LZTR1 RW; not shown: FLAG tag
T1 sequence (looked up): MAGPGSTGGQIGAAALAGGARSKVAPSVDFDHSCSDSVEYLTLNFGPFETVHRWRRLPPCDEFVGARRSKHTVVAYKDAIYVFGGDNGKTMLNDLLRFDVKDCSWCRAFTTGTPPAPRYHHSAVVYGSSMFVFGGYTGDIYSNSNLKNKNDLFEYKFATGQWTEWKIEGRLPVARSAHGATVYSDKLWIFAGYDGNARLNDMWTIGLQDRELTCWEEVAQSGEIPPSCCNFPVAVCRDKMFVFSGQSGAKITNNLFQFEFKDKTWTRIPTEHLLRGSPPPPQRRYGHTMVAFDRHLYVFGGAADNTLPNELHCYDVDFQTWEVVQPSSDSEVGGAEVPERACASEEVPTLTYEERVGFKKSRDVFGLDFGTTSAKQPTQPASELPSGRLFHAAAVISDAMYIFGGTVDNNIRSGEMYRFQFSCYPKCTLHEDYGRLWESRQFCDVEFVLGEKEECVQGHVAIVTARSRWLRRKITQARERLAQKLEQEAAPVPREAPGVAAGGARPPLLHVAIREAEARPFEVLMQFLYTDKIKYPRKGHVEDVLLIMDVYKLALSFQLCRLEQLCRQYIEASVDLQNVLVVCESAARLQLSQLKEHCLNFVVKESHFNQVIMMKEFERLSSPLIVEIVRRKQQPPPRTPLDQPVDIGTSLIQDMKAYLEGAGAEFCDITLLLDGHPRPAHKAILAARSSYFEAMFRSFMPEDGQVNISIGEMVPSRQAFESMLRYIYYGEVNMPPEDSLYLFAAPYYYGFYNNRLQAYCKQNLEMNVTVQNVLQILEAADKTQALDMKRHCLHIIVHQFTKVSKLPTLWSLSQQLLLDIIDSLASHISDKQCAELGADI
Description: IP/MS, LZTR1 R810W-FLAG, U87. The protocol: (§1) Lysates were immunoprecipitated with FLAG affinity matrix and eluted with FLAG peptide. […] Protein gel slices were excised and in-gel digestion performed as previously described (83), with minor modifications. Gel slices were washed with 1:1 A cetonitrile and 100 mM ammonium bicarbonate for 30 min then dehydrated with 100% acetonitrile for 10 min until shrunk. The excess acetonitrile was then removed and the slices dried in speed-vacuum at room temperature for 10 min. Gel slices were reduced with 5 mM DTT for 30 min at 56° C. in an air thermostat, cooled down to room temperature, and alkylated with 11 mM IAA for 30 min with no light. Gel slices were then washed with 100 mM of ammonium bicarbonate and 100% acetonitrile for 10 min each. Excess acetonitrile was removed and dried in a speed-vacuum for 10 min at room temperature and the gel slices were re-hydrated in a solution of 25 ng/μl trypsin in 50 mM ammonium bicarbonate for 30 min on ice and digested overnight at 37° C. in an air thermostat. Digested peptides were collected and further extracted from gel slices in extraction buffer (1:2 ratio by volume of 5% formic acid:acetonitrile) at high speed, shaking in an air thermostat. The supernatants from both extractions were combined and dried in a speed-vacuum. Peptides were dissolved in 3% acetonitrile/0.1% formic acid. Desalted peptides were injected in an EASY-Spray™ PepMap™ RSLC C18 50 cm×[…] column (Thermo Scientific) connected to an Orbitrap Fusion™ Tribrid™ (Thermo Scientific) as described in “Global ubiquitylation enrichment” section. The following modifications were used for protein identification and quantification: oxidation of methionine (M), acetylation of the protein N-terminus, and deamination for asparagine or glutamine (NQ). Results obtained from MaxQuant were assembled in Scaffold for data visualization.

The target in another experiment is T2, LZTR1-FLAG (human, UniProt Q8N653 1-840).
T2 construct: Expressed in HEK 293T, HeLa or U87 cells; used as cell lysate; also called LZTR1 wild type-FLAG; LZTR1 WT; not shown: FLAG tag at the C-terminus
T2 sequence (looked up): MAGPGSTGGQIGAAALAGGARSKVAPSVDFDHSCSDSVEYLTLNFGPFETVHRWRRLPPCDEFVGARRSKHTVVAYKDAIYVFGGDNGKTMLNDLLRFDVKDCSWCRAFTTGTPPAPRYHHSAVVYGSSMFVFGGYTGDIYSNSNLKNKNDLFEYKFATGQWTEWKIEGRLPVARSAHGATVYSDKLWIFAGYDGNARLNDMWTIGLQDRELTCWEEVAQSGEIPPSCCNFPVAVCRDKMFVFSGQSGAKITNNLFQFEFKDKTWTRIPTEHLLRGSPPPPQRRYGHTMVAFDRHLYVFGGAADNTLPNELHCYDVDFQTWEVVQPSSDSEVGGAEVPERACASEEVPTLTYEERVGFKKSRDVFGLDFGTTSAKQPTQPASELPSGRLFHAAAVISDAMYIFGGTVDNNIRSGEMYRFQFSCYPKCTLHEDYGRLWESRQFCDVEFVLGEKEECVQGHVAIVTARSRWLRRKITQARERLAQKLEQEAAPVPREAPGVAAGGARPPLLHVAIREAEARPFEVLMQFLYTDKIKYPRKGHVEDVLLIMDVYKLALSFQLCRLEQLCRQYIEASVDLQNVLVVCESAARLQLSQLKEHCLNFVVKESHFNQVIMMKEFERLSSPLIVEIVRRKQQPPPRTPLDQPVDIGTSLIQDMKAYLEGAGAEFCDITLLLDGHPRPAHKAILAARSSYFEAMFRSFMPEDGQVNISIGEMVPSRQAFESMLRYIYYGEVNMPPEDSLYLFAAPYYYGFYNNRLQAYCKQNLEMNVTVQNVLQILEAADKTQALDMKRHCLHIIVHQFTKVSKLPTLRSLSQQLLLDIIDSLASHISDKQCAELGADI
Description: IP/MS, LZTR1 wild type-FLAG, U87. The protocol: as §1

B1: ADAM 15 (other, human, UniProt Q13444 207-863, looked up)
chain: DVVTETKTVELVIVADHSEAQKYRDFQHLLNRTLEVALLLDTFFRPLNVRVALVGLEAWTQRDLVEISPNPAVTLENFLHWRRAHLLPRLPHDSAQLVTGTSFSGPTVGMAIQNSICSPDFSGGVNMDHSTSILGVASSIAHELGHSLGLDHDLPGNSCPCPGPAPAKTCIMEASTDFLPGLNFSNCSRRALEKALLDGMGSCLFERLPSLPPMAAFCGNMFVEPGEQCDCGFLDDCVDPCCDSLTCQLRPGAQCASDGPCCQNCQLRPSGWQCRPTRGDCDLPEFCPGDSSQCPPDVSLGDGEPCAGGQAVCMHGRCASYAQQCQSLWGPGAQPAAPLCLQTANTRGNAFGSCGRNPSGSYVSCTPRDAICGQLQCQTGRTQPLLGSIRDLLWETIDVNGTELNCSWVHLDLGSDVAQPLLTLPGTACGPGLVCIDHRCQRVDLLGAQECRSKCHGHGVCDSNRHCYCEEGWAPPDCTTQLKATSSLTTGLLLSLLVLLVLVMLGASYWYRARLHQRLCQLKGPTCQYRAAQSGPSERPGPPQRALLARGTKQASALSFPAPPSRPLPPDPVSKRLQAELADRPNPPTRPLPADPVVRSPKSQGPAKPPPPRKPLPADPQGRCPSGDLPGPGAGIPPLVVPSRPAPPPPTVSSLYL
notes: Printed as ADAM 15; read as ADAM15
With B1, the binding result with LZTR1 R810W-FLAG and in the experiment with LZTR1-FLAG was “binds” each time.

B2: ARAF (other, human, UniProt P10398 1-606, looked up)
chain: MEPPRGPPANGAEPSRAVGTVKVYLPNKQRTVVTVRDGMSVYDSLDKALKVRGLNQDCCVVYRLIKGRKTVTAWDTAIAPLDGEELIVEVLEDVPLTMHNFVRKTFFSLAFCDFCLKFLFHGFRCQTCGYKFHQHCSSKVPTVCVDMSTNRQQFYHSVQDLSGGSRQHEAPSNRPLNELLTPQGPSPRTQHCDPEHFPFPAPANAPLQRIRSTSTPNVHMVSTTAPMDSNLIQLTGQSFSTDAAGSRGGSDGTPRGSPSPASVSSGRKSPHSKSPAEQRERKSLADDKKKVKNLGYRDSGYYWEVPPSEVQLLKRIGTGSFGTVFRGRWHGDVAVKVLKVSQPTAEQAQAFKNEMQVLRKTRHVNILLFMGFMTRPGFAIITQWCEGSSLYHHLHVADTRFDMVQLIDVARQTAQGMDYLHAKNIIHRDLKSNNIFLHEGLTVKIGDFGLATVKTRWSGAQPLEQPSGSVLWMAAEVIRMQDPNPYSFQSDVYAYGVVLYELMTGSLPYSHIGCRDQIIFMVGRGYLSPDLSKISSNCPKAMRRLLSDCLKFQREERPLFPQILATIELLQRSLPKIERSASEPSLHRTQADELPACLLSAARLVP
In the case of B2, the binding result with LZTR1 R810W-FLAG is on record as “binds”.

B3: AMOTL2 (other, human, UniProt Q9Y2J4 1-779, looked up)
chain: MRTLEDSSGTVLHRLIQEQLRYGNLTETRTLLAIQQQALRGGAGTGGTGSPQASLEILAPEDSQVLQQATRQEPQGQEHQGGENHLAENTLYRLCPQPSKGEELPTYEEAKAHSQYYAAQQAGTRPHAGDRDPRGAPGGSRRQDEALRELRHGHVRSLSERLLQLSLERNGARAPSHMSSSHSFPQLARNQQGPPLRGPPAEGPESRGPPPQYPHVVLAHETTTAVTDPRYRARGSPHFQHAEVRILQAQVPPVFLQQQQQYQYLQQSQEHPPPPHPAALGHGPLSSLSPPAVEGPVSAQASSATSGSAHLAQMEAVLRENARLQRDNERLQRELESSAEKAGRIEKLESEIQRLSEAHESLTRASSKREALEKTMRNKMDSEMRRLQDFNRDLRERLESANRRLASKTQEAQAGSQDMVAKLLAQSYEQQQEQEKLEREMALLRGAIEDQRRRAELLEQALGNAQGRAARAEEELRKKQAYVEKVERLQQALGQLQAACEKREQLELRLRTRLEQELKALRAQQRQAGAPGGSSGSGGSPELSALRLSEQLREKEEQILALEADMTKWEQKYLEERAMRQFAMDAAATAAAQRDTTLIRHSPQPSPSSSFNEGLLTGGHRHQEMESRLKVLHAQILEKDAVIKVLQQRSRRDPGKAIQGSLRPAKSVPSVFAAAAAGTQGWQGLSSSERQTADAPARLTTDRAPTEEPVVTAPPAAHAKHGSRDGSTQTEGPPDSTSTCLPPEPDSLLGCSSSQRAASLDSVATSRVQDLSDMVEILI
On to B3, for which the binding result with LZTR1 R810W-FLAG and with LZTR1-FLAG was “binds” throughout.

B4: APEH (other, human, UniProt P13798 1-732, looked up)
chain: MERQVLLSEPEEAAALYRGLSRQPALSAACLGPEVTTQYGGQYRTVHTEWTQRDLERMENIRFCRQYLVFHDGDSVVFAGPAGNSVETRGELLSRESPSGTMKAVLRKAGGTGPGEEKQFLEVWEKNRKLKSFNLSALEKHGPVYEDDCFGCLSWSHSETHLLYVAEKKRPKAESFFQTKALDVSASDDEIARLKKPDQAIKGDQFVFYEDWGENMVSKSIPVLCVLDVESGNISVLEGVPENVSPGQAFWAPGDAGVVFVGWWHEPFRLGIRFCTNRRSALYYVDLIGGKCELLSDDSLAVSSPRLSPDQCRIVYLQYPSLIPHHQCSQLCLYDWYTKVTSVVVDVVPRQLGENFSGIYCSLLPLGCWSADSQRVVFDSAQRSRQDLFAVDTQVGTVTSLTAGGSGGSWKLLTIDQDLMVAQFSTPSLPPTLKVGFLPSAGKEQSVLWVSLEEAEPIPDIHWGIRVLQPPPEQENVQYAGLDFEAILLQPGSPPDKTQVPMVVMPHGGPHSSFVTAWMLFPAMLCKMGFAVLLVNYRGSTGFGQDSILSLPGNVGHQDVKDVQFAVEQVLQEEHFDASHVALMGGSHGGFISCHLIGQYPETYRACVARNPVINIASMLGSTDIPDWCVVEAGFPFSSDCLPDLSVWAEMLDKSPIRYIPQVKTPLLLMLGQEDRRVPFKQGMEYYRALKTRNVPVRLLLYPKSTHALSEVEVESDSFMNAVLWLRTHLGS
Take B4: the binding result with LZTR1 R810W-FLAG and in the experiment with LZTR1-FLAG was “binds” throughout.

B5: AHR (other, human, UniProt P35869 11-848, looked up)
chain: ASRKRRKPVQKTVKPIPAEGIKSNPSKRHRDRLNTELDRLASLLPFPQDVINKLDKLSVLRLSVSYLRAKSFFDVALKSSPTERNGGQDNCRAANFREGLNLQEGEFLLQALNGFVLVVTTDALVFYASSTIQDYLGFQQSDVIHQSVYELIHTEDRAEFQRQLHWALNPSQCTESGQGIEEATGLPQTVVCYNPDQIPPENSPLMERCFICRLRCLLDNSSGFLAMNFQGKLKYLHGQKKKGKDGSILPPQLALFAIATPLQPPSILEIRTKNFIFRTKHKLDFTPIGCDAKGRIVLGYTEAELCTRGSGYQFIHAADMLYCAESHIRMIKTGESGMIVFRLLTKNNRWTWVQSNARLLYKNGRPDYIIVTQRPLTDEEGTEHLRKRNTKLPFMFTTGEAVLYEATNPFPAIMDPLPLRTKNGTSGKDSATTSTLSKDSLNPSSLLAAMMQQDESIYLYPASSTSSTAPFENNFFNESMNECRNWQDNTAPMGNDTILKHEQIDQPQDVNSFAGGHPGLFQDSKNSDLYSIMKNLGIDFEDIRHMQNEKFFRNDFSGEVDFRDIDLTDEILTYVQDSLSKSPFIPSDYQQQQSLALNSSCMVQEHLHLEQQQQHHQKQVVVEPQQQLCQKMKHMQVNGMFENWNSNQFVPFNCPQQDPQQYNVFTDLHGISQEFPYKSEMDSMPYTQNFISCNQPVLPQHSKCTELDYPMGSFEPSPYPTTSSLEDFVTCLQLPENQKHGLNPQSAIITPQTCYAGAVSMYQCQPEPQHTHVGQMQYNPVLPGQQAFLNKFQNGVLNETYPAELNNINNTQTTTHLQPLHHPSEARPFPDLTSSGFL
On to B5, for which the binding result in the experiment with LZTR1 R810W-FLAG and in the experiment with LZTR1-FLAG was “binds” each time.

(Values after US20250262210A1 (TRUSTEES OF COLUMBIA UNIVERSITY IN THE CITY OF NEW YORK, published 2025).)
